Measured values taken from the supplement of paper PMC9170038.

System: MS2 coat protein
Test: apparent KD of MS2 coat protein; designed switch direction (-1 OFF switch, 1 ON switch): 1; higher = weaker reporter binding
In short: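 SNAP-549-labelled MS2 coat protein was titrated, doubling from 0.7 or 1.5 nM to 3 µM, over designed RNA switches transcribed on Illumina chips by stalled E. coli RNA polymerase. Runs were done without input, with 200 uM small-molecule ligand, or with an oligonucleotide input. Apparent KD is the per-design median over clusters of curve-fitted normalised fluorescence.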

[1] = input ligand: microRNA oligo, concentration not stated
[2] = Eterna round: R95, input ligand: FMN 200 uM
[3] = Eterna round: R95, input ligand: microRNA oligo, concentration not stated
[4] = Eterna round: R95, input ligand: none

Sequence	apparent KD of MS2 coat protein (input ligand: FMN 200 uM)	apparent KD of MS2 coat protein [1]	apparent KD of MS2 coat protein (input ligand: none)	apparent KD of MS2 coat protein [2]	apparent KD of MS2 coat protein [3]	apparent KD of MS2 coat protein [4]
GUGCUCGUGUGAGGAUAUGCUUCCGUUUCGGCUGCAGAAGGUACUAUUAUACAUGAGGAUCACCCAUGUCUCUUUUGUUUGGUG [salish99_SSNG1_r04_910] (Eterna round: R96, puzzle: Same State NG 1)	95 nM	51.9 nM	67.8 nM	–	–	–
GUAAUACAUGAGGAUCACCCAUGUCAAUGUAGUCGAGGAUAUGGGUAGCUAUGAGGCUUACUAGAAGGCGACGAGC [Same State 1 - Mod of Vinnie Teenbexe v.5] (puzzle: Same State 1)	–	–	–	28 nM	176 nM	359 nM
AAUUGUUUCUGAGGAUAUCAGUAGUAUGCUUUUUGAGAAGGCAGUACAUGAGGAUCACCCAUGUUGUGGUUUGAUAGAAUGAUA [JR_SSNG1_Sub004] (Eterna round: R96, puzzle: Same State NG 1)	–	130 nM	–	–	–	–
GGUCCAGCCUGAGCUGGACAAAAGCAUGUACAUGAGGAUCACCCAUGUUCAUGUACAAGCUUUUUGCUCGUCUUAGC [salish99_208a_r3_071] (puzzle: Sensor for hsa-mir-208a)	–	–	–	534 nM	12.7 nM	468 nM
ACAUGAGACCAAGGAUAUUUUGUACCUACAUGUGACAUGAGGAUCACCCAUGUGGUAAGUAUGAGAGAGAAGGUGGAGAUAUGU [Equivalence 23 - Jieux - Same State NG 2] (Eterna round: R96, puzzle: Same State NG 2)	34.4 nM	21.5 nM	36.5 nM	–	–	–
GGAGCCGGUACUGAGGAUAUUCAUAUUAAAACAUGAGGAUCACCCAUGUAGGCCAGAAGGCCUUGGGAGAAGGCAGAUCGGCUCC [Biceusra] (Eterna round: R96, puzzle: Same State 2)	19 nM	132 nM	233 nM	–	–	–
CGUAGGUGGCUGGAGGAUAUUCGAGUGGUAACAUGAGGAUCACCCAUGUGUCGCGCGGUACAUGAGGAGAAGGCUAGCGGCCUGC (puzzle: Same State 2)	–	–	–	20.8 nM	118 nM	250 nM
UGAAUAGUGAUAGGAUAUACAUGAGGAAUCCUCGUAGAAGGAUCAUAACAUGAGGAUCACCCAUGUAGCGCUCAGAAGAGCGCA [Mat - Same State NG 1 - JL mod - D54] (Eterna round: R96, puzzle: Same State NG 1)	31.5 nM	37.1 nM	81.3 nM	–	–	–
GAGCCAGUCCGAGGAUAUUCGUAUUAACACAUGAGGAUCACCCAUGUGGGCUCAGAAGAGCCCUGGGAGAAGGCGGGCUGGCUC [SS-NG2-LRO17] (Eterna round: R96, puzzle: Same State NG 2)	11.8 nM	30.9 nM	48.4 nM	–	–	–
GUACAUAUUAUAGGAUAUCACGUCGAAUAGACGUGAGAAGGAUAAUCCCACAUGAAUAUUAAUACAUGAGGAUCACCCAUGUAC [SSNG1/18-A1] (Eterna round: R96, puzzle: Same State NG 1)	42 nM	49.7 nM	49.2 nM	–	–	–
GGACGUCGAUAAUAUAAUCUCACAUGAGGAUCACCCAUGUCACAGGAUAUGGAUCCUAAUUGGAUCCAGAAGGGUGCGACGUCC [Fiskers NG3ss - 35] (Eterna round: R96, puzzle: Same State NG 3)	73.3 nM	235 nM	373 nM	–	–	–
ACAUGAGGAUCACCCAUGUAUGCUCAGGAAACUGUGCAGCAUGAGGAUAUGGAUCCUAAUUGGAUCCAGAAGGCGUGAAUUAUU [Fiskers NG3ss - 25] (Eterna round: R96, puzzle: Same State NG 3)	507 nM	692 nM	2520 nM	–	–	–
GCAGUACUAGCAGAGGAUAUGUCGGUAACGACAUGAGGAUCACCCAUGUGUACGAAAGUGCUCAGACAGAAGGCUGAGUACUGCU [Same State 2 - Hyphema v.1] (puzzle: Same State 2)	–	–	–	17.8 nM	58.4 nM	78.4 nM
UACAAUCUAUCUGAGGAUAUCAUGAAUUAAACAUGAGGAUCACCCAUGUGCAGGAAAACUGCAUAUGAGAAGGCAGAUAGAUUGU [salish99_ss2_r3_060] (puzzle: Same State 2)	–	–	–	52.9 nM	2.45 nM	804 nM
GUGGCCCAGGCACAGGAUAUGUUUCUCGUAACAUGAGGAUCACCCAUGUGCCUAUGAGAUAUAAUGCAGAAGGGUGCACGCCACG [Mat - Same State 2 - Mod of UCT - D80] (puzzle: Same State 2)	–	–	–	16.2 nM	68.2 nM	60.9 nM
GUGGUCAGACAUGAGGAUCACCCAUGUGGAAUAAAUAACAGACAGGAUAUCCAAUAUAGGAUAUAGGAGAAGGGUCGAUUGGUG (Eterna round: R96, puzzle: Same State NG 3)	–	56.9 nM	–	–	–	–

Sequence	apparent KD of MS2 coat protein (input ligand: FMN 200 uM)	apparent KD of MS2 coat protein [1]	apparent KD of MS2 coat protein (input ligand: none)	apparent KD of MS2 coat protein [2]	apparent KD of MS2 coat protein [3]	apparent KD of MS2 coat protein [4]
AGUCCAGCCUGAGCUGGACAAAAGCGUGUACAUGAGGAUCACCCAUGUCAUGUACAAGCUUUUUGCUCGUCUUAAUA [Zipper 49 - 6] (puzzle: Sensor for hsa-mir-208a)	–	–	–	106 nM	21.2 nM	83.1 nM
UCUUGGUUUUUGCUCGUUUUUUGUGUUGAACAUGAGGAUCACCCAUGUAUUGUACGGUCCGGUUUAGUGAUGAUCCG [JMF 73] (puzzle: Sensor for hsa-mir-208a)	–	–	–	39.1 nM	31.3 nM	45.6 nM
AUUACUAACAUAGGAUAUCAUGCGAAAAUUGCGUGAGAAGGGUGGACACUGUCUUUCUCGGAGCACAUGAGGAUCACCCAUGUG [SameState NG1 #69] (Eterna round: R96, puzzle: Same State NG 1)	81.4 nM	41.5 nM	65 nM	–	–	–
GGUAUUAACACAGGAUAUGCUUACGAAACGUAAGCAGAAGGGUGAACAUGAGGAUCACCCAUGUUUGUACCAGGGCGUGAGCCC [JL SSNG1 1.72] (Eterna round: R96, puzzle: Same State NG 1)	349 nM	632 nM	923 nM	–	–	–
GGUGGGUUACUACCAACACAUGAGGAUCACCCAUGUUUUGGGAAGGAUAUGGUACCUAUUUGGUACCAGAAGGUCCGGUUGGUG [salish99_SSNG3_r04_704] (Eterna round: R96, puzzle: Same State NG 3)	47.8 nM	100 nM	100 nM	–	–	–
GGGAGAGCCGCAGGAUAUGGUGAGGAUUACCCACUAGAAGGGUGGACAUGAGAAUCGAACAUGAGGAUCACCCAUGUUCUGAGG (Eterna round: R96, puzzle: Same State NG 1)	200 nM	219 nM	386 nM	–	–	–
AAGACAUUUGCUUAGGAUAUACAGGGCUCCACAUGAGGAUCACCCAUGUUAAAAGAGGAGUAAAUGUAGAAGGAAGCCUCCAAUA [Zazaes] (puzzle: Same State 2)	–	–	–	19.1 nM	59.8 nM	66.3 nM
GAAUAAGUUUACGAGGAUAUGUUCCGCAUAACAUGAGGAUCACCCAUGUGAACAAGAAAGGCGACGCAGAAGGCGUGAGCAGAAG [Mat - Same State 2 - Mod of UCT - D100] (puzzle: Same State 2)	–	–	–	23 nM	11.4 nM	117 nM
AGUCCAGCCUGAGCUGGACAAAAGCAUGUACAUGAGGAUCACCCAUGUUCAUGUACAAGCUUUUUGCUCGUCUUAGG [salish99_208a_r3_062] (puzzle: Sensor for hsa-mir-208a)	–	–	–	375 nM	21.8 nM	686 nM
ACAUGAGACUCAGGAUAUAUUGUACCUACAUGUGACAUGAGGAUCACCCAUGUGGUAAGUAUGACAUAGAAGGGAGAGAUAUGU [Equivalance 86 - Jieux - Same State NG 2] (Eterna round: R96, puzzle: Same State NG 2)	37.3 nM	40.5 nM	59.9 nM	–	–	–
CCGAGUGGCGUACAGGAUAUGUUGCAUGGAACAUGAGGAUCACCCAUGUAUUUGCUCCCGCAUACGCAGAAGGGUGCGUCCUGGG [Arraquorso] (Eterna round: R96, puzzle: Same State 2)	25 nM	31.4 nM	46.9 nM	–	–	–
GGCUAUCGCGUUCGAUAGCUUAAGCAUGUACAUGAGGAUCACCCAUGUCAUGUACAAGCUUUUUGCUCGUAUCUUAU (puzzle: Sensor for hsa-mir-208a)	–	–	–	94.6 nM	12.1 nM	119 nM
UUUAUUAAUAUAGGAUAUGUAAAACAUGAGGAUCACCCAUGUGAUAUCGUGAGUAAGGAGAGAGAACAGAAGGAUAAUUUUUUU [JMF's solution 2] (Eterna round: R96, puzzle: Same State NG 2)	39.7 nM	35.1 nM	32.5 nM	–	–	–
CUUUUUAGUGCAGGAUAUGAUCAACAUGAGGAUCACCCAUGUGGCGUUGUGAGUAGGGAGAGUGAUCAGAAGGGCGUCUCCUCG [SS-NG2-LRO10] (Eterna round: R96, puzzle: Same State NG 2)	40.7 nM	55.7 nM	39.2 nM	–	–	–
GGUGGGUUGCUGCCGGCACAUGAGGAUCACCCAUGUUUUGGGAAGGAUAUGGUACCUGUUUGGUGCCAGAAGGUCCCGUUGGUG [salish99_SSNG3_r04_711] (Eterna round: R96, puzzle: Same State NG 3)	864 nM	526 nM	522 nM	–	–	–
